Values of other authors as cited in paper PMC3197216.
Each block holds one substance with its values, some of them ahead of it.

How the values were obtained:
[1] = target: NR2 ATD (Rattus norvegicus) (UniProt Q00960)
[2] = target: GluA3 ATD (Rattus norvegicus) (UniProt P19492)
[3] = target: KA2 ATD (Rattus norvegicus) (UniProt Q63273)
Chain of UniProt Q63273 (Q63273 20-402): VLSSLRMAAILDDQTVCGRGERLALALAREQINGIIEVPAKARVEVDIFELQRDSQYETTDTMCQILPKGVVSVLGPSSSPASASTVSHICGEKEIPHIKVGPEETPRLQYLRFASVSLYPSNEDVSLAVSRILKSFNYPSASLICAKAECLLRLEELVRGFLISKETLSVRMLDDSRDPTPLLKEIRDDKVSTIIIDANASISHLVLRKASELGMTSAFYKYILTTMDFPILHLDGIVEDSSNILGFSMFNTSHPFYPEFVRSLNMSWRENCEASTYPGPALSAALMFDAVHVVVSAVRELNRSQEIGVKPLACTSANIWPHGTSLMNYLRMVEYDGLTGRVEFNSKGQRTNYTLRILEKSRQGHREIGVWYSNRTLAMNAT

Chain of UniProt Q00960 (Q00960 31-394): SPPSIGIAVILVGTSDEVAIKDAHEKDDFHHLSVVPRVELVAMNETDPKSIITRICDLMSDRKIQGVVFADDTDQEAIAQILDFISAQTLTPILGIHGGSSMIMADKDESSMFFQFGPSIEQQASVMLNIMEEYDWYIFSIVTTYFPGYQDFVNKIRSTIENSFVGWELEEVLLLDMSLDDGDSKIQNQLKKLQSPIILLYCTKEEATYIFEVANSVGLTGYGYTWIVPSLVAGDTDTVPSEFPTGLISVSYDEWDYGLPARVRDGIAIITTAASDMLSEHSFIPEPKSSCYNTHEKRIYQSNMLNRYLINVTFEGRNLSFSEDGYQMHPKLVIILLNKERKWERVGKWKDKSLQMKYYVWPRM

Kd [1]: 700 nM
Substance: NR1 ATD (from UniProt P35439)

Kd [2]: 1200 nM
Substance: GluA3 ATD (from UniProt P19492)

Kd [3]: 11 nM
Substance: GluR6 ATD (from UniProt P42260)
